Laboratory results: patent US20200407449A1 (PHARMABCINE, published 2020)

T1: mouse VISTA-Fc (mouse, UniProt Q9D659 33-191)
T1 construct: extracellular domain; also called mVISTA-Fc; VISTA-FC Mouse; not shown: Fc portion
T1 sequence (looked up): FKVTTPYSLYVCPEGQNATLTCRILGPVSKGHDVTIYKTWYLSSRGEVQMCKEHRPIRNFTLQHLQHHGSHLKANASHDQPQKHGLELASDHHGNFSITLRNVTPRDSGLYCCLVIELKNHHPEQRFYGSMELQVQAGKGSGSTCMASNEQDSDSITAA

T2: hVISTA-Fc (R&D systems. Cat. No. 7126-B7) (human, UniProt Q9H7M9 33-194)
T2 construct: Bought antigen; also called human VISTA-Fc; VISTA-FC Human
T2 sequence: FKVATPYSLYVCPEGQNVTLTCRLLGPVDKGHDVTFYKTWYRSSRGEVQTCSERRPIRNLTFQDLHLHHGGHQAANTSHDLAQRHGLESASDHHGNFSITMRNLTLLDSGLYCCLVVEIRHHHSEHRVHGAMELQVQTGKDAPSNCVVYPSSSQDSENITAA

B1: anti-VISTA antibody 1A12 (IgG form) (antibody, V domains shown)
VH: QMQLVESGGGLVEPGRSLRLSCTTSGFSFHDYTMYWVRQVPGKGLEWVSLISWDGTITFYADPVRGRFTISRDNSKNSLYLQMNSLRAEDTAVYYCAKEDRYDYYSGAFDIWGQGTVVTVSS
VL: QSALTQPRSVSGSPGQSVTISCTGTSSDVGGYDYVSWYQQHPGKAPKLILNDVNKRPSGVPDRFSGSKSGNTASLTISGLQPDDEADYYCSSFAGSNTLRVFGGGTKLTVLG
B2: 1B8 monoclonal scFv phage (scFv, V domains shown)
VH: QMQLVQSGAEVKKPGSSVKVSCKASGGSSSNYAISWVRQAPGQGLEWMGGIIPIFGTTSYAQKFQGRVTITADGSMSTAYMELSSLRSEDTAVYYCAKGAIEPWPFYFDNWGQGTLVTVSS
VL: QLVLTQPRSVSGSPGQSVTISCTGTNSDVGAYNYLSWYQQLPGRAPKVIIYDVNKRPSGVPDRFSGSRSGKTASLTISGLQAEDEADYYCAAWDDSLNGLVFGGGTKLTVLG
notes: also called IB8; Anti VISTA.3.0 (1B8)
B3: anti-VISTA antibody 3C5 (IgG form) (antibody, V domains shown)
VH: QVQLVQSGAEVKKPGASVKLSCKASGYTFSSYWMHWVRQAPGQRLEWMGEINPGNGHTNYNEKFKSRVTITVDKSASTAYMELSSLRSEDTAVYYCAKDIAYYDFWSGDAFDLWGQGTMVTVSS
VL: SYELTQPLSVSVSPGQTASITCSGDKLGNKYASWYQQKPGQSPVLVIYQDNKRPSGIPERFSGSNSGNTATLTISGTQATDEADYYCQTWDRSTGVFGTGTKVTVLG
B4: 3C5 monoclonal scFv phage (scFv, V domains shown)
VH: B3 VH
VL: B3 VL
B5: anti-VISTA antibody 2C12 (IgG form) (antibody, V domains shown)
VH: QVQLVESGAEVKKPGASVKVSCKASGYIFTDYYMHWVRQAPGQGLEWMGVINPYDGRTSFAQKFQGRLTVTRDTSTSTAYMDLSGLRSEDTAVYYCAKQMGIWDYDAFDIWGQGTMVTVSS
VL: QFVLTQPSSVSGAPGQRVIISCTGSSSNIGAGYDVHWYQQLPGTAPKVLIYGNSDRPSGVPDRFSASKSATSASLAITGLQAEDEADYYCVAWDDSLKAYVFGTGTKVTVLG
notes: also called #2C12(H); #2C12(M)
B6: 2C12 monoclonal scFv phage (scFv, V domains shown)
VH: B5 VH
VL: B5 VL

What was measured:
mouse VISTA-Fc [1] = target: T1, mouse VISTA-Fc; assay: ELISA, plate coated with 1 ug/ml mouse VISTA-Fc, antibody at 1 ug/ml, anti-human IgG (kappa)-peroxidase
Procedure: ELISA assay: 1 μg/ml of Ag (human VISTA-Fc or mouse VISTA-Fc) was plated at 100 μl/well onto a 96-well plate and incubated at 4° C. overnight. The next day, the plated Ag was washed 3 times with 0.05% PBST and 200 μl of 2% BSA blocking buffer was added thereto, followed by incubation at 25° C. for 2 hours. After blocking was completed, the resulting product was washed 3 times with 0.05% PBST. 1 μg/ml of each antibody was injected at 100 μl/well and incubated at 25° C. for 1 hour. After incubation was completed, the resulting product was washed 3 times with 0.05% PBST and 100 μl of goat anti-human IgG (kappa)-conjugated peroxidase (1:2000, Bethyl Lab #A80-115P) was added thereto, followed by incubation at 25° C. for […]. After incubation, the resulting product was washed 3 times with 0.05% PBST, 100 μl of TMB (BD TMB substrate reagent set #555214) was added, color was developed for 3 to 5 minutes, 50 μl of a stop solution was added thereto, and then an assay was performed using an ELISA reader.

[2] = target: T2, hVISTA-Fc (R&D systems. Cat. No. …); assay: Octet (BLI), antibody immobilised on biosensor, antigen in solution
Procedure: (§1) The binding ability of the screened antibody to the antigen was measured using an Octet (ForteBio). For this purpose, the antibody was immobilized on a biosensor, various concentrations of antigen were added to a 96-well plate, and then the binding ability was measured.

[3] = target: T2, hVISTA-Fc (R&D systems. Cat. No. …); assay: dissociation rate constant of scFv in the screening of optimised clones; antigen not named
[4] = target: T2, hVISTA-Fc (R&D systems. Cat. No. …); assay: monoclonal scFv phage ELISA, plate coated with 1 ug/ml VISTA-Fc, anti-M13-HRP
Procedure: (§2) After the panning process was completed, the final round cell stock was diluted to form 200 to 500 colonies, spread on a CM agar plate, and then incubated overnight at 37° C. The next day, when the colonies grew, 200 μl of 2xYT medium (CM 34 μg/ml+1% glucose) was plated onto a 96-well deep plate, the colony was inserted into each well one by one and the plate was then incubated overnight at 37° C. and 3,000 rpm. The next day, 200 μl of 2×YT medium (CM 34 μg/ml+1% glucose) was plated onto a new 96-well dip plate, and […] of cells grown the day before were injected into each well and grown at 37° C. and 3,000 rpm for 1 hour and 10 minutes. The remaining cells were stored at −70° C. in 100 pμl of 50% glycerol. When the cells grew, 1 μl of a helper phage was mixed with 19 μl of 2×YT medium, and 20 μl of the resulting mixture was injected into each well and incubated for 30 minutes at 37° C. After incubation, centrifugation was performed at 3,000 rpm for 10 minutes. The supernatant was discarded and 200 μl of 2×YT medium (CM 34 μg/ml+Kan. 70 μg/ml+1 mM IPTG+5 mM MgCl₂) was added to the residue, followed by incubation in MegaGrow at 30° C. and 3,000 rpm overnight.
(§3) 1 μg/ml of Ag (hVISTA-Fc, mVISTA-Fc) was plated at 100 μl/well onto a 96-well immunoplate and then incubated overnight at 4° C. The next day, the cells grown the day before were centrifuged at 3,000 rpm for 10 minutes and stored at 4° C. The plated Ag was washed 3 times with 0.05% PBST, and then 200 μl of 2% BSA blocking buffer was added thereto, followed by incubation at 25° C. for 2 hours. After blocking was completed, the result was washed 3 times with 0.05% PBST. […] After phage binding was completed, the reaction product was washed three times with 0.05% PBST, 100 μl of HRP-conjugated mouse anti-M13 antibody (1:3000, #GE 27-9421-01) was added thereto, and reaction was allowed to proceed at 25° C. for 1 hour. After the reaction was completed, the resulting product was washed 3 times with 0.05% PBST, 100 μl of TMB (#BD TMB substrate reagent set 555214) was added thereto, color was developed for 3 to 5 minutes, 50 μl of a stop solution was added thereto, and then an assay was performed using an ELISA reader.

mouse VISTA-Fc [5] = target: T1, mouse VISTA-Fc; assay: Octet (BLI), antibody immobilised on biosensor, antigen in solution
Procedure: as §1

mouse VISTA-Fc [6] = target: T1, mouse VISTA-Fc; assay: monoclonal scFv phage ELISA, plate coated with 1 ug/ml VISTA-Fc, anti-M13-HRP
Procedure: as §2, §3

Binder	binding result (mouse VISTA-Fc [1])	Kd [2] [nM]	koff [2] [s⁻¹]	kon [2] [M⁻¹ s⁻¹]	OD [4] [OD]	other results
B1	no binding (tested: 1 ug/ml)	0.546	2.74e-05	50200		
B2					2.13	koff [3]: 0.000732 s⁻¹
B3	no binding (tested: 1 ug/ml)	13.9	0.00367	264000		
B4					2.2	
B5		1.02	8.48e-05	83400		Kd (mouse VISTA-Fc [5]): 14 nM; koff (mouse VISTA-Fc [5]): 0.00078 s⁻¹; kon (mouse VISTA-Fc [5]): 55700 M⁻¹ s⁻¹
B6					2.11	OD (mouse VISTA-Fc [6]): 2.03 OD
